According to patent publication US20030113867A1:
Blank lines part the entries; values can stand above or below the binder they belong to.

Assays:
[1] = target: prokineticin receptor(s) of guinea pig ileal smooth muscle (ileal membrane preparation / ileum longitudinal muscle) (guinea pig); experiment: cell-based or functional assay
[2] = target: prokineticin receptor expressed endogenously on M2A7 melanoma cells (ATCC CRL-2500); experiment: cell-based or functional assay
[3] = target: prokineticin receptor(s) of guinea pig ileal smooth muscle (ileal membrane preparation / ileum longitudinal muscle) (guinea pig); experiment: competition radioligand binding on guinea pig ileal membranes, filtration; unlabeled prokineticin 1 varied against 125I-prokineticin 1 (20 pM)
[4] = target: prokineticin receptor(s) of guinea pig ileal smooth muscle (ileal membrane preparation / ileum longitudinal muscle) (guinea pig); experiment: saturation binding of 125I-prokineticin 1 to guinea pig ileal membranes, low-affinity site, n=3
[5] = target: prokineticin receptor(s) of guinea pig ileal smooth muscle (ileal membrane preparation / ileum longitudinal muscle) (guinea pig); experiment: saturation binding of 125I-prokineticin 1 to guinea pig ileal membranes, Scatchard analysis, two-site model, high-affinity site, n=3
[6] = target: prokineticin receptor(s) of guinea pig ileal smooth muscle (ileal membrane preparation / ileum longitudinal muscle) (guinea pig); experiment: displacement of 125I-prokineticin 1 (20 pM) from guinea pig ileal membranes by unlabeled prokineticin 1, two-site model, high-affinity site
[7] = target: prokineticin receptor expressed endogenously on M2A7 melanoma cells (ATCC CRL-2500); experiment: binding of iodinated prokineticin 1 to M2A7 melanoma cells
[8] = target: prokineticin receptor(s) of guinea pig ileal smooth muscle (ileal membrane preparation / ileum longitudinal muscle) (guinea pig); experiment: saturation binding of 125I-prokineticin 1 to guinea pig ileal membranes, Scatchard analysis, two-site model, low-affinity site, n=3
[9] = target: prokineticin receptor(s) of guinea pig ileal smooth muscle (ileal membrane preparation / ileum longitudinal muscle) (guinea pig); experiment: displacement of 125I-prokineticin 1 (20 pM) from guinea pig ileal membranes by unlabeled prokineticin 1, two-site model, low-affinity site
[10] = target: prokineticin receptor(s) of guinea pig ileal smooth muscle (ileal membrane preparation / ileum longitudinal muscle) (guinea pig); experiment: saturation binding of 125I-prokineticin 1 to guinea pig ileal membranes, high-affinity site, n=3
[11] = target: prokineticin receptor(s) of guinea pig ileal smooth muscle (ileal membrane preparation / ileum longitudinal muscle) (guinea pig); experiment: displacement of 125I-prokineticin 1 (20 pM) from guinea pig ileal membranes by unlabeled prokineticin 2, low-affinity site
[12] = target: prokineticin receptor(s) of guinea pig ileal smooth muscle (ileal membrane preparation / ileum longitudinal muscle) (guinea pig); experiment: competition radioligand binding on guinea pig ileal membranes, filtration; unlabeled prokineticin 2 varied against 125I-prokineticin 1 (20 pM)
[13] = target: prokineticin receptor(s) of guinea pig ileal smooth muscle (ileal membrane preparation / ileum longitudinal muscle) (guinea pig); experiment: displacement of 125I-prokineticin 1 (20 pM) from guinea pig ileal membranes by unlabeled prokineticin 2, high-affinity site

B1: chimeric prokineticin 12 (exons 1 and 2 of prokineticin 1, exon 3 of prokineticin 2) (ligand)
chain: AVITGACERDVQCGAGTCCAISLWLRGLRMCTPLGREGEECHPGSHKVPFFGRRMHHTCPCLPGLACLRTSFNRFICLAQK
- time constant to midway contraction of ileal strips [1]: 40 min

B2: chimeric prokineticin 21 (exons 1 and 2 of prokineticin 2, exon 3 of prokineticin 1) (ligand)
chain: AVITGACDKDSQCGGGMCCAVSIWVKSIRICTPMGKLGDSCHPLTRKVPFFRKRKHHTCPCLPNLLCSRFPDGRYRCSMDLKNINF
- EC50 of ileal contraction relative to prokineticin 1 or prokineticin 2 [1]: 8 fold
- time constant to midway contraction of ileal strips [1]: 40 min

The next lines start with the values.

- contraction of guinea-pig ileum longitudinal muscle, ED50 [1]: 0.46 nM
- time constant to midway contraction of ileal strips [1]: 15 min
- calcium mobilization in M2A7 melanoma cells (FLIPR), EC50 [2]: 12 nM
- IC50 (read off the curve) [3]: 5 nM
- Bmax (fmol/mg of protein) [4]: 26.4
- Kd [5]: 5 pM
- Ki [6]: 8 pM
- receptor level (fmole/mg protein) [7]: 150
- Kd [8]: 0.227 nM
- Ki [9]: 1.5 nM
- Bmax (fmol/mg of protein) [10]: 7.8
B3: recombinant refolded human prokineticin 1 with C-terminal 6xHis-tag (ligand)
chain: AVITGACERDVQCGAGTCCAISLWLRGLRMCTPLGREGEECHPGSHKVPFFRKRKHHTCPCLPNLLCSRFPDGRYRCSMDLKNINFHHHHHH
modifications: 125I-iodinated by the iodogen method where used as the labeled ligand; plain where used as unlabeled competitor; five disulfide bonds

- Ki [11]: 1.22 nM
- contraction of guinea-pig ileum longitudinal muscle, ED50 [1]: 0.9 nM
- time constant to midway contraction of ileal strips [1]: 15 min
- calcium mobilization in M2A7 melanoma cells (FLIPR), EC50 [2]: 21 nM
- IC50 (read off the curve) [12]: 4 nM
- Ki [13]: 4.2 pM
B4: recombinant refolded human prokineticin 2 with C-terminal 6xHis-tag (ligand)
chain: AVITGACDKDSQCGGGMCCAVSIWVKSIRICTPMGKLGDSCHPLTRKVPFFGRRMHHTCPCLPGLACLRTSFNRFICLAQKHHHHHH
